Measurements from patent US7335814B2, “Transgenic cells expressing glucosyltransferase nucleic acids” (The University of York, priority 2000, dated 2008).

Key:
Experiment in all cases: purified protein, by the assay type
Details in all cases: other: glucose ester formation; pH 7.0; 30.0 °C
[1] = substrate: O=C(O)C=Cc1ccccc1
[2] = substrate: COc1cc(/C=C/C(=O)O)ccc1O
[3] = substrate: O=C(O)/C=C/c1ccc(O)cc1

B1: recombinant GTase A911 (Arabidopsis thaliana) (protein)
chain: MGSSEGQETHVLMVTLPFQGHINPMLKLAKHLSLSSKNLHINLATIESARDLLSTVEKPRYPVDLVFFSDGLPKEDPKAPETLLKSLNKVGAMNLSKIIEEKRYSCIISSPFTPWVPAVAASHNISCAILWIQACGAYSVYYRYYMKTNSFPDLEDLNQTVELPALPLLEVRDLPSFMLPSGGAHFYNLMAEFADCLRYVKWVLVNSFYELESEIIESMADLKPVIPIGPLVSPFLLGDGEEETLDGKNLDFCKSDDCCMEWLDKQARSSVVYISFGSMLETLENQVETIAKALKNRGLPFLWVIRPKEKAQNVAVLQEMVKEGQGVVLEWSPQEKILSHEAISCFVTHCGWNSTMETVVAGVPVVAYPSWTDQPIDARLLVDVFGIGVRMRNDSVDGELKVEEVERCIEAVTEGPAAVDIRRRAAELKRVARLALAPGGSSTRNLDLFISDITIA
Km [1]: 50 µM
Km [2]: 340 µM
Km [3]: 390 µM
Vmax [3]: 11.10 nkat/mg
